Experimental data: PMC5241339, “Insights into binding of S100 proteins to scavenger receptors: class B scavenger receptor CD36 binds S100A12 with high affinity” (Amino Acids, 2016)
Values joined by “and” are separate entries in the source; they are usually repeats but may differ in a detail not shown here. Equal values may be shown once.

Target: T1, CD36 (His-tagged recombinant human protein, Sino Biological, Life technologies, 70-80 kDa) (human, UniProt P16671 30-439)
T1 construct: CD36, class B scavenger receptor, human, recombinant; also called Human recombinant CD36
T1 sequence (P16671 30-439): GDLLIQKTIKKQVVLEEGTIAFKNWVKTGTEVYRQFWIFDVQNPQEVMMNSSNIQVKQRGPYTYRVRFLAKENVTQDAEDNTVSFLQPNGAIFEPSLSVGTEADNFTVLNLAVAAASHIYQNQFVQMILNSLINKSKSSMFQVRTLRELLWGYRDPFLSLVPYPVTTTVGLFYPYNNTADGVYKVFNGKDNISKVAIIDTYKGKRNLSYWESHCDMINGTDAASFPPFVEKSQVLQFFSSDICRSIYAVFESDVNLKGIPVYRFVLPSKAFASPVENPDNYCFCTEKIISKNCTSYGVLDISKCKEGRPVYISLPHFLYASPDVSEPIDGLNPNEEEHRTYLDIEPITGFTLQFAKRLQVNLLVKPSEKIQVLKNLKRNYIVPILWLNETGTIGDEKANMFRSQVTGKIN
Test: SPR; Biacore T100; CD36 immobilized by amine coupling on a C1 chip (1000 RU); S100A12 species as analyte 0.62-50.0 nM, single cycle kinetics, 30 µL/min, 25 °C; HBS-P+ with 350 µM CaCl2; two-state reaction model
Details: both partners purified

- Kd: 1.04 nM and 0.9 nM
B1: commercially available native human S100A12 protein (nS100A12) (natural protein, UniProt P80511 1-92, looked up)
chain: MTKLEEHLEGIVNIFHQYSVRKGHFDTLSKGELKQLLTKELANTIKNIKDKAVIDEIFQGLDANQDEQVDFQEFISLVAIALKAAHYHTHKE
notes: S100A12, human, untagged; Called 'native' in the methods and 'untagged recombinant' in the results; also called human, untagged recombinant nS100A12
